This data set can be described thus: label from the status in PepcDB records.
For “MSLSAMPAALSFAGLAGWAEEDHLAALNAFRAGCGVSKDPAAARVCGLAKATKDLDVSGAKAFIEANFRVEAVDGGGDGLLTAYFAPQYEARMSRNAEFSAPLRGLPADLVVLDLGPFEPALVGKKITGHVEGSTFVPYPDRAEIEATPSDKPLAWMRPEELFFLQIQGSGVLVLPDGRRVRAVFAGTNGKPFVGIAIAMRDKGLLPDNNTSADAIRTWLAEHRGPEADAIMRLNPRYVFFRTVPDDGKEPAGAAGVALPPGRAIAVDPGYHAYGGFYWLDAAAPKLVGAFPVYRRAVTALDTGGAIKGEVRADLYMGSGAVAGVEAGRVRHTLRLYRLTPNPEGHHHHHH”, the protein production result is “not failed”.
The same measure for “MSLSDDSTFGDATFVVLDFETTGLDPQVDEIIEIGAVKIQGGQIVDEYHTLIKPSREISRKSSEITGITQEMLENKRSIEEVLPEFLGFLEDSIIVAHNANFDYRFLRLWIKKVMGLDWERPYIDTLALAKSLLKLRSYSLDSVVEKLGLGPFRHHRALDDARVTAQVFLRFVEMMKKEGHHHHHH”: “not failed”; for “MSLSEYRRKRSFDKTREPEPGKTLPPGQRAIFVVQLHHASRRHYDFRLQVGDALKSWAVPKGPSYDPKVKRMAVEVEDHPVDYASFEGEIPRGEYGGGHVAQFDHGVWATAGDPEAQLAKGHLRFELFGNKLKGGWHLVRSGKPARQPQWLLFKEDDAYAGTLEADDLLADVAATPADDVRRAGAGKTQRKGLTTVPPPAAKKRGTWAKQALALSGARRAEMEDAPFAPQLAKLVQSPPEGAQWLHEIKWDGYRILATVTNGKVRLWSRNALEWTDKTPEIADAIQSLGLRNAQIDGELIAGRGTKEDFNLLQATLSGERQVPLALAVFDLLHVDGVDISEAPLRERKQLLQQVLQAAPHMHLAYSSHVEGDGTEAFRVAGEQHFEGIISKRADRPYRDGRSDDWRKTKQLASQEYAVVGYTAPKGSRSGFGSLLLATPDPVHGWLYVGRVGSGFSDALMREVTQQLEGGGRKPTAHIPTPDTDLRGATWFAPRFVVEVFYRGIGGQQLLRQASFKALRPDKRIADLADSDAGNGRSTSSSTQRSAKTRAAKNAATQVAKRAATRATAPARKSAVATPSSAALPTLSSPTKLIYPDIRATKGDVWDYYQAVMDHLLPQIVGRPLSIIRCPSGAEKPCFFQKHHTAGLERVSSVKLTEETGTNAYYLVIEDAPGLLELVQFNALEFHPWGSHADRPDVADRVVFDLDPGPDVPFAEVKRAANDIRKLLAQLELESFLRVSGGKGLHVVVPLNPGCDWEVTKRFAKGFADALAQAEPQRFIATATKRLRNKRIFVDYLRNGRGATAVASYPLRGRPGAPVALPLAWSDLSKLQRADAFTLRDVPEKLRRRRKDPWADMDRIRQNLARWAEQDED”: “failed”; for “MSLSFTPLHTTSEAFIEKALPWLEDRYFHIAYLNPNGYTAYPQGAFRHYLAFGSEAAIHVSDATRVFETWNEIKKGYTNEWIFVFASYDGKNSVEQLHTSKEAGIAFAAATFFIPEHVWEIQPDGILIHKGSGSSLVTEIQHAEPSTPVQQSDIFVKQVVSKESYFNAFDELQQIIAQGDAYEINYCIPFTAKGNISPAATYQRLNKKTPMPFSVYYKFNTEYILSASPERFIKKTGDTIISQPIKGTSKRGKSKAEDEMLKQQLGTSEKEQSENTMIVDLVRNDLSRTAVAGSVCVPELSGLYTFPNVHQLISTVQSTIDPACSSIDVIQQAFPMGSMTGAPKVNVMKFIDRIESMARGPFSGTVGYMDPHDNFDFNVLIRSIFYNSATQELFMEAGSAITSYAKAETEYEECLLKITPMIHILNNQEGHHHHHH”: “not failed”.
In the case of “MSLSGTDIHTSDYYFLFEEKFRGSRELVKARLRRYIPYFKGCRRVLDIGCGRGEFLELCKEEGIESIGVDINEDMIKFCEGKFNVVKSDAIEYLKSLPDKYLDGVMISHFVEHLDPERLFELLSLCYSKMKYSSYIVIESPNPTSLYSLINFYIDPTHKKPVHPETLKFILEYLGFRDVKIEFFEECEELTKLAKIDSNTVSEEVIRVINENIEKLNRILFGPQDYAIIAKKEGHHHHHH”, the protein production entry is given as “not failed”.
The same measure for “MSLSIVSYYGSQQSKCGYCAGANCSLSHGMHAYQLDCRDYQDLIDRGWRRCGYYCYKLRNQETCCPCYTIKCNGLEFKLSKSNKRILRRINRFLRDGKRESKPEAGDGDGEADADYAIVAPEVTASEPQPQLPDKSPPVINVEQVASLATAQRKPTKQATAAAVEAPTLGSNKSSLLSSSAAAPISNKPCKKAKQMRLDRRLAKLGDSASYSTKSLTQEKTLRDFLNTDSETNKHRLKLRLIHVYDDEFRRTLPQSFALYKKYQISIHNDPPKDQDAYKEHLQATPLQNEKPWDGPEMGYGSFHQQYWLDDKLIAVGVIDILPGCVSSVYFFYDPDYSFLSLGTYGSLREIELVQSLAEKVPSLKYYYMGFYIHSCPKMRYKGKLSPSYLLCPETYEWLPLTDVIRAKLDEHKYQRLNEDPAARDVNEFLMEHLDEVKLLLGGRTRTDYKHFRQLRGTVSDDDIIIEYSKLVGKECARRMLYVK”: “failed”.
As to “MSLSKDNIWKLLAPLVVMGVMLLIPVPDGMPPQAWHYFAVFVAMIVGMILEPIPATAISFIAVTICVIGSNYLLFDASELADPAFKASKQALKWGLAGFSSTTVWLVFGAFIFALGYEVTGLGRRIALFLVKFMGKRTLTLGYAIVIIDILLAPFTPSNTARTGGTVFPVIKNLPPLFKSFPNDPSARRIGGYLMWMMVISTSLSSSMFVTGAAPNVLGLEFVSKIAGVQISWLQWFLSFLPVGIILLIVAPWLSYVLYKPEVTHSAEVAAWAGGELKNMGRLSRKEWTLIGLVLLSLGLWVFGGKIINATAVGLLAVSLMLALHVVPWKDITRYNSAWNTLVNLATLVVMANGLTRSGFIDWFANTMSTHLEGFSPDATVIVLVLVLVLVLVLVLVLVLVLVLVLVLVLVFYFAHYLFASLSAHTATMLPVILAVGKGIPGVPMEQLCILLVLSIGIMGCLTPYATGPGVIIYGCGYVKSRDYWRLGAIFGVIYIAMLLLVGWPILAMWN”, the protein production entry was “failed”.
The same measure for “MSLSLLLQQHLSQPWRFLDHTSFGPTFQALQSFAYDDTLCTSIGKSQSPPTLRAWVHHNTVVLGIQDSRLPQIKAGIEALKGFQHDVIVRNSGGLAVVLDSGILNLSLVLKEEKGFSIDDGYELMYELICSMFQDHREQIEAREIVGSYCPGSYDLSIDGKKFAGISQRRIRGGVAVQIYLCVSGSGAERAKMIRTFYDKAVAGQPTKFVYPRIKPETMASLSELLGQPHNVSDVLLKALMTLQQHGASLLTESLSADEWLLYEQHFARISERNEKLLAEEGHHHHHH”: “not failed”; for “MSLSLLVIGSLAFDDIETPFGRSDNTLGGSSTYIALSASYFTDEPIRMVGVVGSDFGKEHFDLLHAKNIDTRGIQVIEDGKTFRWAGRYHYDMNTRDTLDTQLNVFAEFDPHVPQYYRDSKFVCLGNIDPELQLKVLDQIDDPKLVVCDTMNFWIEGKPEELKKVLARVDVFIVNDSEARLLSGDPNLVKTARIIREMGPKTLIIKKGEHGALLFTDNGIFAAPAFPLESIYDPTGAGDTFAGGFIGHLARCGNTSEAEMRKAVLYGSAMASFCVEQFGPYRYNDLDLLEVDDRYQSFLELSRIEEGHHHHHH”: “not failed”; for “MSLSLYDSAHSLDGKSGWDTPVFSMKDSMDRNPMVTEAWEALCQSQVYFRGKPVGTIAAYDHASEEVLNYDQVFVRDFVPSALAFLMNGEPEIVKNFLLKTLHIQGQDKMIDKFKLGDGAMPASFKVLHNPIKKTDTIIADFGESAIGRVAPVDSGFWWIILLRAYTKSTGDHSLAERPECQKGMRLILSLCLSEGFDTFPTLLCADGCSMVDRRMGIYGYPIEIQALFFMALRSALSMLKHDSEGKEFMEKIVKRLHALSFHMRSYFWLDFQQLNDIYRYKTEEYSHTAVNKFNVIPDSIPDWIFDFMPLRGGYFVGNVSPARMDFRWFALGNCIAILSSLATPEQSMAIMDLIEARWEELVGEMPLKICYPAMESHEWGIVTGCDPKNTRWSYHNGGSWPVLLWLLTAASIKTGRPQIARRAIELAEARLLKDGWPEYYDGKSGRFIGKQARKSQTWSIAGYLVAKMMMDDPTHVGMISMEEEKHMKPPLRRSSSWT”: “failed”.
The same measure for “MSLSMPVPEGADAAAKEMALSDMIPYTVHYDDESVITKDDGLVQVIKLDGLYFESLTAEQIKQFERRRNTVLRSIANSDRGVYVHLIRRKVNLYPAGEGGTWFARRFNQAWRERYNKRSFYVNEIYISIVRNRFRQGAPGILDRAFSLVSGSKITKEDLESFEEQAKDVNEAANLVVQTLSGYGARKLRIQRRPEFVLDRVSRADAQVAVERFKMSWQEFQRSHGHHEVYSRDEVLDYLGEDFSEIGGFLHYLVNLEDERVPVTEMQLDRTLAVSYLDFKMLSNMMAVQNLSGTRAGAMLSMAEWPARTPSRMLDEFLKQPVEYIITQSFFFTDRISAEHDMRQERRRIAVNDREGVAEEDKDEITKGLQDLTRGRSVNGLHHLTMLVHVPATTQFADPIENKRQTIADLDGAVGLLKKAFVNLGVKPVREWFAMETFFWAQLPGQAQHFMGRRGKIKSGNFAGFASLHNFAVGKIDGNLWGPAIMPFETESGTAYYFSFHREMEGMVAGHTAFTADTGAGKTTLLAALIAMGDKAYPRVFWFDNREGAKVFMCAMGGQHTTLTVQGSTGWNPMKLPDTPENRAYLVELLTLMRTCYGGKIVPDDIDRFKKAVHENYALAYPDRRLLNVAWCFGQGELAKDMRVWHGANGIEGANWGVFDNEHDNIDLTNCRHYCYEMRQLIKDGTARPELPVVLSYPFHRIEQSMNGEPFILVLEEGQNLVKHAYWREKIDSYIMQIRRKNGLLVFVTPDAKYLYCETDSIQKQTATKIYLPNGEAKRTDLVDVLGLTPAEYEFVRDTPPENRTFLIRRGNESIKAKFDLSDMPEFIPVLSSNDKGVALMEEIIRELETDDPEQWVPVFMERALAKNTHNLKQKGA”: “failed”.
“MSLSNTPIELKGSSFTLSVVHLHEAEPEVIRQALEDKIAQAPAFLKHAPVVINVSGLESPVNWPELHKIVTSTGLRIIGVSGCKDASLKVEIDRMGLPLLTEGKEKAVRPAPEGHHHHHH”: the protein production entry is listed as “not failed”.
The same measure for “MSLSSKLRLQLDAHASIHENVRRLLQFTTSIMEANEEGIRKDIDSEFLHDFRVAIRRSRSILRLLNGVFDPEKTAWMLAGLRELGKRTNDLRDSDVYLLRREEYTSLLPPSLRPALDPFFSDLEADKRLHHRQFCRYLTGREYSGFMTSLKEFIAEGELPDPETAPLAAEPTGDVAAKTIRKALKKVLVHGRRTGSETSDAELHELRIDCKKLRYLLEFFASLFPPKATAQVLRQMKTLQDNLGTFVDLTVQMEFLQSRLETIPADRGGISEAAAIGGLLTTLYRKREKVREHFHEIFSGFDSNETGELFDELLTGLAEGHHHHHH”: “not failed”; for “MSLSVAIIGPGAVGTTIAYELQQSLPHTTLIGRHAKTITYYTVPHAPAQDIVVKGYEDVTNTFDVIIIAVKTHQLDAVIPHLTYLAHEDTLIILAQNGYGQLEHIPFKNVCQAVVYISGQKKGDVVTHFRDYQLRIQDNALTRQFRDLVQDSQIDIVLEANIQQAIWYKLLVNLGINSITALGRQTVAIMHNPEIRILCRQLLLDGCRVAQAEGLNFSEQTVDTIMTIYQGYPDEMGTSMYYDIVHQQPLEVEAIQGFIYRRAREHNLDTPYLDTIYSFLRAYQQNEGHHHHHH”: “not failed”.
As for “MSLSVKILFKNATVFPITSRPFKGDVLVSNGKVEKVGENIEDPDAEIVDLTGKFLFPGFVDAHSHIGLFEEGVGYYYSDGNEATDPVTPHVKALDGFNPQDPAIERALAGGVTSVMIVPGSANPVGGQGSVIKFRSIIVEECIVKDPAGLKMAFGENPKRVYGERKQTPSTRMGTAGVIRDYFTKVKNYMKKKELAQKEGKEFTETDLKMEVGEMVLRKKIPARMHAHRADDILTAIRIAEEFGFNLVIEHGTEAYKISKVLAEKKIPVVVGPLLTFRTKLELKDLTMETIAKLLKDGVLIALMCDHPVIPLEFATVQAATAMRYGAKEEDLLKILTVNPAKILGLEDRIGSIEPGKDADLVVWSGHPFDMKSVVERVYIDGVEVFRREGHHHHHH”, the protein production result is “not failed”.
